{"source": "paper PMC12356840", "about": "“Structural basis for substrate recognition mechanism of human SLC26A7” (Nature Communications, 2025)", "proteins": {"B1": {"name": "human SLC26A7 (solute carrier family 26 member 7) (natural protein, UniProt Q8TE54 1-656, looked up)", "chain": "MTGAKRKKKSMLWSKMHTPQCEDIIQWCRRRLPILDWAPHYNLKENLLPDTVSGIMLAVQQVTQGLAFAVLSSVHPVFGLYGSLFPAIIYAIFGMGHHVATGTFALTSLISANAVERIVPQNMQNLTTQSNTSVLGLSDFEMQRIHVAAAVSFLGGVIQVAMFVLQLGSATFVVTEPVISAMTTGAATHVVTSQVKYLLGMKMPYISGPLGFFYIYAYVFENIKSVRLEALLLSLLSIVVLVLVKELNEQFKRKIKVVLPVDLVLIIAASFACYCTNMENTYGLEVVGHIPQGIPSPRAPPMNILSAVITEAFGVALVGYVASLALAQGSAKKFKYSIDDNQEFLAHGLSNIVSSFFFCIPSAAAMGRTAGLYSTGAKTQVACLISCIFVLIVIYAIGPLLYWLPMCVLASIIVVGLKGMLIQFRDLKKYWNVDKIDWGIWVSTYVFTICFAANVGLLFGVVCTIAIVIGRFPRAMTVSIKNMKEMEFKVKTEMDSETLQQVKIISINNPLVFLNAKKFYTDLMNMIQKENACNQPLDDISKCEQNTLLNSLSNGNCNEEASQSCPNEKCYLILDCSGFTFFDYSGVSMLVEVYMDCKGRSVDVLLAHCTASLIKAMTYYGNLDSEKPIFFESVSAAISHIHSNKNLSKLSDHSEV", "notes": "full-length wild-type human SLC26A7 (also known as SUT2), UniProt Q8TE54; Homodimer (domain-swapped) in the cryo-EM structures; both were used to capture the protein on the way to the structure; The iodide-loaded sample had 20 mM sodium iodide throughout the purification; also called SUT2; SLC26A7_apo"}}, "target": "the molecule itself", "experiment": "cryo-EM structure; purified SLC26A7 in 25 mM Tris pH 8.0, 150 mM NaCl, 0.02% GDN, 5-10 mg/ml; apo sample and sample with 20 mM sodium iodide; dimer model obtained by C2 symmetry"}
{"protein": "B1", "values": [{"measurement": "stoichiometry N", "result": 2}]}
